Assay: soluble on expression in E. coli; label from the status in PepcDB or PDB records

| Sequence | soluble on expression in E. coli |
| --- | --- |
| MEVARGLEGVLFTESRMCYIDGQQGKLYYYGIPIQELAEKSSFEETTFLLLHGRLPRRQELEEFSAALARRRALPAHLLESFKRYPVSAHPMSFLRTAVSEFGMLDPTEGDISREALYEKGLDLIAKFATIVAANKRLKEGKEPIPPREDLSHAANFLYMANGVEPSPEQARLMDAALILHAEHGFNASTFTAIAAFSTETDLYSAITAAVASLKGPRHGGANEAVMRMIQEIGTPERAREWVREKLAKKERIMGMGHRVYKAFDPRAGVLEKLARLVAEKHGHSKEYQILKIVEEEAGKVLNPRGIYPNVDFYSGVVYSDLGFSLEFFTPIFAVARISGWVGHILEYQELDNRLLRPGAKYVGELDVPYVPLEARE | soluble |
| MAVLIETTLGDLIIDLFVKERPRCSLNFLKLCKKKYYNLNQFHSIERNYVAQTGDPTGTGKGGESVYSDMYGEQGRYFEREDLPKMRHTRMGIVSFVNNGDNMLGSQFFITLGENLDYLDDQHTIFGQVTEGLETLEKLNEQLADTNNRPFKDIRISHTIVLDDPFDEDARISFPPRSPSPTYEMLVKTDQIALDEKEDEDEGKTAEEIAEELQQREMAEQAQILEMVGDLKDADEVPPENVLFVCKLNPVTTDEDLEIIFSRFGKINNCEIVRDRRSGDSLQYAFIEFDNAKSCEQAFFKMDNVLIDDRRIHVDFSQSVSQNYKYKPKSQQQEAPKRRQSPQRRPEVKRSHQRSPSPRRRRSPSPKKDKKRDYRREPARRRRSSDNHRDRDRSYRDNNRDRRDNHRDSDRDRRRHDRSPDRRRDRR | not soluble |
| MDQAHANAASLEASDLFDADWYLAEYPDVQSLQMPPAVHYLWLGARLGRNPSPRFSTRSYLDANPDVAQAGINPLLHFLLAGRDEGRSGTILAAPSRGSTETDVNASTFGEHRPYVFLPPADLDRIAAQWSKDSARPDAQGRGIAIFSAITGSYDSINHHEHLIPGADYLLFSDAPKPRYVYQPRQAPWFDCDTVRAARFIKTHPHMLLGGYRIAVWIDGNILIRGDLLPLVQRFEESGLAFGAVPHPLRQSVYAEAVECMKRGKDDEATIRRQMQRYRREEFDCEDLIESNLLMFRLGHPSLAPLLDTWWAQIESGSRRDQLSLNYALHKTGVEWLALTQRPHSVRDHPALALMHHRSQFNPAEPGVCLPRPRERTFAEVRAERIAAQSARRADVIVCVHNAPEMVARCLDSVRTGQNPDRHRIIIIDDGSGRDTAELVSRFAADTPNTVLIRNAVAGGYTRAANQGLKAMDADMAILLNSDTVVAPGWIEKLLDAAFSNPGVGIVGPMSSAASHQSIPEHQSRHDQTAINDLPPGWSAADMDAWCERMAPADFLPRVPLVHGFCFAVTREAVERIGYLDEDSFPDGYGEENDYCLRATDAGVGLAIATHTYVFHEKSQSYQSDRRISLMKRGNGKIRELHGDERVARAVRSMQQNPHLGRLRTAAARLFAVTTPETPALEHHHHHH | not soluble |
| MSADAYHPPTTSPRLETLDVLSIGMSLDVFRQGQVWKALQEQNAAQAEALHVGSILPMDPKKYPTSADDKDMAYEKRQADALELGLKNFLEKWPIPTVTVVRGWDPSTPNLRFTPEETRESLSVKVNDLRVPAGLHWHRIANLQDGIICNDTPEGVLEALFSLFERNPDLPAVLVYANEGISMAGALSSRDVTLKSLGAVSGPRIPGTLTDAMVALIVGRPERVDWLRQFAPYTKVNENRIDPEFRGWGWRKPPVEFRPTPFIPQPWTERALEQWDALPVLARLHRPVSVPLTHPDTGERLKREALTAQLAAAWKTASAGLRPAPARLFYDGGLNATPLAELTPALGAAQSSLDLLDSRESYDLTQRLGDTGAASPFVGITLATMASYLNGDSSMVMPLRRKDQATLIGISSPTPGKKPVHDPFGVDLLPQTASGDGPPPSADPVAPASRLTTRLPPGEDYALEEFLSSLKPSTDWQDDL | not soluble |
| TSADGLKLVANYLEAPSPSNTTIILAHGYRGKSGKVEMAGLARMYNQKFGYNVLMPDARAHGESEGKNIGFGWPERKDYVQWTNQVLDKNGDDTEIVLHGVSMGSSTVLMTSAEKLPKQVKSIIADCGYTSMDAELAYQLKAMFHLPKFPIIPMASLINKVKEGFFFSEASAINAVAETDLPIFYIHGDSDAFVPTSMVEELYDATKSYKEKWVVKGAEHGQAFTVEPETYEEKVRQFLTKTM | not soluble |

From the DeepSol protein solubility set
